# Measurements published in US8734776B2 (ZymoGenetics, Inc., priority 2003, dated 2014).
# Like-named read-outs stand apart in the source and are kept apart here.
# What was measured:
# [1] = system: IL-28RA mRNA; test: Semi-quantitative RT-PCR of IL-28RA, IFNAR2 and CRF2-4 mRNA; assay type: cell-based, human; details: HepG2 cells + cytokine
# Procedure: In order to further examine the mRNA distribution for IL-28RA, semi-quantitative RT-PCR was performed using the SDS 7900HT system (Applied Biosystems, CA). One-step RT-PCR was performed using 100 ng total RNA for each sample and gene-specific primers. A standard curve was generated for each primer set using Bjab RNA and all sample values were normalized to HPRT. The normalized values for IFNAR2 and CRF2-4 are also shown.
# [2] = system: influenza virus; assay type: cell-based; details: Influenza (type A [H3N2])
# [3] = system: vaccinia virus; assay type: cell-based; details: Vero cells
# [4] = system: dengue virus; assay type: cell-based; details: Vero cells
# [5] = system: polio virus; assay type: cell-based; details: Vero cells
# [6] = system: dengue virus; assay type: cell-based; details: Vero cells; remark: listed apart in the source
# [7] = system: BCBL-1 cells
# [8] = system: polio virus; assay type: cell-based; details: Vero cells; remark: listed apart in the source
# [9] = system: encephelomyocarditis virus; test: Antiviral assay: cytopathic effect in HeLa cells; assay type: cell-based, human
# [10] = system: rhino virus; assay type: cell-based
# [11] = system: coxsackie virus; assay type: cell-based; details: Coxsackie B4 virus, KB cells
# [12] = system: parainfluenza virus; assay type: cell-based; details: MA-104 cells
# [13] = system: OAS; test: OAS activity in serum and plasma of mice (RIA)
# [14] = system: vaccinia virus; assay type: cell-based; details: Vero cells; remark: listed apart in the source
# [15] = system: pichinde virus; assay type: cell-based
# [16] = system: adenovirus; assay type: cell-based; details: A549 cells
# [17] = system: west nile virus; assay type: cell-based; details: Vero cells
# [18] = system: adenoviral vector, AdGFP; test: Adenoviral (AdGFP) liver pathology in mice; assay type: in vivo, mouse; details: C57Bl/6 mice
# Procedure: When injected intravenously, these viruses primarily target the liver for gene expression. The adenoviruses are replication deficient, but cause liver damage due to inflammatory cell infiltrate that can be monitored by measurement of serum levels of liver enzymes like AST and ALT, or by direct examination of liver pathology.
# C57B116 mice were given once daily intraperitoneal injections of 50 μg mouse IL-28 (zcyto24 as shown in SEQ ID NO:8) or metIL-29C172S—PEG for 3 days. Control animals were injected with PBS. One hour following the 3rd dose, mice were given a single bolus intravenous tail vein injection of the adenoviral vector, AdGFP (1×10^9 plaque-forming units (pfu)). Following this, every other day mice were given an additional dose of PBS, mouse IL-28 or metIL-29C172S—PEG for 4 more doses (total of 7 doses). One hour following the final dose of PBS, mouse IL-28 or metIL-29C172S—PEG mice were terminally bleed and sacrificed. The serum and liver tissue were analyzed. Serum was analyzed for AST and ALT liver enzymes. Liver was isolated and analyzed for GFP expression and histology. For histology, liver specimens were fixed in formalin and then embedded in paraffin followed by H&E staining. Sections of liver that had been blinded to treat were examined with a light microscope. Changes were noted and scored on a scale designed to measure liver pathology and inflammation.
# [19] = system: venezuelan equine encephalitis virus; assay type: cell-based; details: Vero cells
# [20] = system: encephelomyocarditis virus; test: Antiviral assay: cytopathic effect in L929 cells; assay type: cell-based, mouse
# [21] = system: rhino virus; assay type: cell-based; remark: listed apart in the source
# [22] = system: west nile virus; assay type: cell-based; details: Vero cells; remark: listed apart in the source
# [23] = system: coxsackie virus; assay type: cell-based; details: Coxsackie B4 virus, KB cells; remark: listed apart in the source
# [24] = system: EMCV; test: EMCV antiviral dye-uptake assay in HepG2 cells; assay type: cell-based, human; details: dye-uptake OD570
# [25] = system: human marrow mononuclear cells; test: Bone marrow expansion assay (Alamar Blue); assay type: cell-based
# [26] = system: influenza virus; assay type: cell-based; details: Influenza (type A [H3N2]); remark: listed apart in the source
# [27] = system: parainfluenza virus; assay type: cell-based; details: MA-104 cells; remark: listed apart in the source
# [28] = Maden-Darby Canine Kidney cells
molecule,measurement,setting,value
"IL-29: human IL-29, previously designated zcyto21, SEQ ID NO:4 (protein, listed as Homo sapiens, SIGNAL (1)...(19)) MAAAWTVVLVTLVLGLAVAGPVPTSKPTTTGKGCHIGRFKSLSPQELASFKKARDALEESLKLKNWSCSSPVFPGNWDLRLLQVRERPVALEAELALTLKVLEAAAGPALEDVLDQPLHTLHHILSQLQACIQPQPTAGPRPRGRLHHWLHRLQEAPKKESAGCLEASVTFNLFRLLTRDLKYVADGNLCLRTSTHPEST",CRF2-4 mRNA normalized to HPRT,[1],3.01
same,IFNAR2 mRNA normalized to HPRT,[1],2.53
same,IL-28RA mRNA normalized to HPRT,[1],2.28
same,EC50 Visual,[2]; [28],>10 µg/mL
same,IC50 Visual,[2]; [28],>10 µg/mL
same,EC50 Visual,[2]; Vero cells,>10 µg/mL
same,IC50 Visual,[2]; Vero cells,>10 µg/mL
same,EC50 NR,[3],>10 µg/mL
same,IC50 NR,[3],>10 µg/mL
same,EC50 Visual,[4],0.032 µg/mL
same,IC50 Visual,[4],>10 µg/mL
same,EC50 Visual,[5],>10 µg/mL
same,IC50 Visual,[5],>10 µg/mL
same,EC50 NR,[6],0.05 µg/mL
same,IC50 NR,[6],>10 µg/mL
same,TC50,[7],> 10 µg/mL
same,EC50 NR,[8],>10 µg/mL
same,IC50 NR,[8],>10 µg/mL
same,Percentage Cytopathic Effect,[9]; relative CM concentration .008X,56%
same,Percentage Cytopathic Effect,[9]; relative CM concentration .0156X,31%
same,Percentage Cytopathic Effect,[9]; relative CM concentration .0325X,10%
same,Percentage Cytopathic Effect,[9]; relative CM concentration .0625X,10%
same,Percentage Cytopathic Effect,[9]; relative CM concentration .125X,5%
same,Percentage Cytopathic Effect,[9]; relative CM concentration .25X,0%
same,Percentage Cytopathic Effect,[9]; relative CM concentration .5X,0%
same,EC50 NR,"[10]; Rhino 2, KB cells",>10 µg/mL
same,IC50 NR,"[10]; Rhino 2, KB cells",>10 µg/mL
same,EC50 NR,"[10]; Rhino 9, HeLa cells",0.982 µg/mL
same,IC50 NR,"[10]; Rhino 9, HeLa cells",>10 µg/mL
same,EC50 NR,[11],>10 µg/mL
same,IC50 NR,[11],>10 µg/mL
same,EC50 NR,[12],>10 µg/mL
same,IC50 NR,[12],>10 µg/mL
same,OAS activity in the serum and plasma of mice,"[13]; C57BL/6 mice, i.v, 10 μg-250 μg",induced OAS activity
same,OAS-1 hr (OAS activity),"[13]; mouse plasma, 250 μg i.v., 1 hr",80 pmol/dL
same,OAS-6 hr (OAS activity),"[13]; mouse plasma, 250 μg i.v., 6 hr",80 pmol/dL
same,OAS-24 hr (OAS activity),"[13]; mouse plasma, 250 μg i.v., 24 hr",180 pmol/dL
same,OAS-48 hr (OAS activity),"[13]; mouse plasma, 250 μg i.v., 48 hr",200 pmol/dL
same,EC50 Visual,[14],>10 µg/mL
same,IC50 Visual,[14],>10 µg/mL
same,EC50 NR,[15],>10 µg/mL
same,IC50 NR,[15],>10 µg/mL
same,EC50 Visual,[16],>10 µg/mL
same,IC50 Visual,[16],>10 µg/mL
same,EC50 Visual,[17],0.032 ng/mL
same,IC50 Visual,[17],>10 µg/mL
same,liver histology: liver and inflammation scores versus PBS-treated group,[18],lower liver and inflammation scores
same,"liver histology: sinusoidal cells, mitotic figures, hepatocyte changes versus PBS treatment group",[18],"less proliferation of sinusoidal cells, fewer mitotic figures and fewer changes in the hepatocytes"
same,average serum AST,"[18]; 50 μg i.p., 7 doses, n=8",162 U/L
same,serum ALT,"[18]; 50 μg i.p., 7 doses, n=8",184 U/L
same,EC50 NR,[19],0.05 µg/mL
same,IC50 NR,[19],>10 µg/mL
same,Percentage Cytopathic Effect,[20]; relative CM conc. .008X,87%
same,Percentage Cytopathic Effect,[20]; relative CM conc. .0156X,87%
same,Percentage Cytopathic Effect,[20]; relative CM conc. .0325X,87%
same,Percentage Cytopathic Effect,[20]; relative CM conc. .0625X,87%
same,Percentage Cytopathic Effect,[20]; relative CM conc. .125X,87%
same,Percentage Cytopathic Effect,[20]; relative CM conc. .25X,87%
same,Percentage Cytopathic Effect,[20]; relative CM conc. .5X,87%
same,EC50 Visual,"[21]; Rhino 2, KB cells",>10 µg/mL
same,IC50 Visual,"[21]; Rhino 2, KB cells",>10 µg/mL
same,EC50 Visual,"[21]; Rhino 9, HeLa cells",>10 µg/mL
same,IC50 Visual,"[21]; Rhino 9, HeLa cells",>10 µg/mL
same,EC50 NR,[22],0.00025 µg/mL
same,IC50 NR,[22],>10 µg/mL
same,EC50 Visual,[23],>10 µg/mL
same,IC50 Visual,[23],>10 µg/mL
same,EC50 antiviral activity,[24],0.0006 µg/mL
same,bone marrow cell expansion,[25]; in the presence of IL-2 or IL-15,small inhibition
same,expansion of bone marrow cells,"[25]; in the presence of IL-3, IL-4, IL-5, IL-7, IL-10, IL-12, IL-21 or no added cytokine",no significant effect
same,EC50 NR,[26]; [28],>10 µg/mL
same,IC50 NR,[26]; [28],>10 µg/mL
same,EC50 NR,[26]; Vero cells,2 µg/mL
same,IC50 NR,[26]; Vero cells,>10 µg/mL
same,EC50 Visual,[27],>10 µg/mL
same,IC50 Visual,[27],>10 µg/mL
